This passage reports IC50 and EC50 results from patent publication US20240116985A1, “STAPLED PEPTIDES AND METHODS THEREOF” (priority 2020, published 2024).

Assay [1] addresses full-length beta-Catenin (Uniprot ID P35222) (Homo sapiens (Human)) (UniProt P35222). Description: fluorescence polarization competition; full-length beta-catenin with 5FAM-TCF4(10-53) probe, peptide titrated. For orientation: Polarisation of emitted light reports the rotation of a fluorescent probe.
Target sequence in this assay (P35222 whole entry, one chain of several): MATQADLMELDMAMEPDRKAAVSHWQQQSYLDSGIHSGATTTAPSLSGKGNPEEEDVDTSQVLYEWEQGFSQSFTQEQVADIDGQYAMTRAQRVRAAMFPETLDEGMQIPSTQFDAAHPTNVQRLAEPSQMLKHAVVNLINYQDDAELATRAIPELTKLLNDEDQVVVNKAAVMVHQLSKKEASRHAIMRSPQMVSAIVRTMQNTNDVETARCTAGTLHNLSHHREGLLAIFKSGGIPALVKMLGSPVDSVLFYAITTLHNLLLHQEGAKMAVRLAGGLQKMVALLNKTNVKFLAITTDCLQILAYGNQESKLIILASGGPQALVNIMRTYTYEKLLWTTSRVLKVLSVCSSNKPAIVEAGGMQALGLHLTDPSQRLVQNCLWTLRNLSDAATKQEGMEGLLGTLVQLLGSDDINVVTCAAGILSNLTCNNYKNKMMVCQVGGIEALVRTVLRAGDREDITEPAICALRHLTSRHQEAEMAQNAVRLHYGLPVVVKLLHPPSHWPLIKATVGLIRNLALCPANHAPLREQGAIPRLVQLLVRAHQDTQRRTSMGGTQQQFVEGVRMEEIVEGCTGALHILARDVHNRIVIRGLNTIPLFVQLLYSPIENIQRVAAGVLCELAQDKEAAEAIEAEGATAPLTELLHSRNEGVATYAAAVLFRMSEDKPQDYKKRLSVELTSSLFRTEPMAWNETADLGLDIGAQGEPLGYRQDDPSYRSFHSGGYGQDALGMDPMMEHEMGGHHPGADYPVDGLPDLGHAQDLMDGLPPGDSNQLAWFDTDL
The target is the same in assay [2]. The assay is described as follows: fluorescence polarization competition; 10 nM full-length beta-catenin + 10 nM 5FAM-TCF4 10-53 as competitor probe.
Target sequence in this assay (P35222 2-781 limits assumed): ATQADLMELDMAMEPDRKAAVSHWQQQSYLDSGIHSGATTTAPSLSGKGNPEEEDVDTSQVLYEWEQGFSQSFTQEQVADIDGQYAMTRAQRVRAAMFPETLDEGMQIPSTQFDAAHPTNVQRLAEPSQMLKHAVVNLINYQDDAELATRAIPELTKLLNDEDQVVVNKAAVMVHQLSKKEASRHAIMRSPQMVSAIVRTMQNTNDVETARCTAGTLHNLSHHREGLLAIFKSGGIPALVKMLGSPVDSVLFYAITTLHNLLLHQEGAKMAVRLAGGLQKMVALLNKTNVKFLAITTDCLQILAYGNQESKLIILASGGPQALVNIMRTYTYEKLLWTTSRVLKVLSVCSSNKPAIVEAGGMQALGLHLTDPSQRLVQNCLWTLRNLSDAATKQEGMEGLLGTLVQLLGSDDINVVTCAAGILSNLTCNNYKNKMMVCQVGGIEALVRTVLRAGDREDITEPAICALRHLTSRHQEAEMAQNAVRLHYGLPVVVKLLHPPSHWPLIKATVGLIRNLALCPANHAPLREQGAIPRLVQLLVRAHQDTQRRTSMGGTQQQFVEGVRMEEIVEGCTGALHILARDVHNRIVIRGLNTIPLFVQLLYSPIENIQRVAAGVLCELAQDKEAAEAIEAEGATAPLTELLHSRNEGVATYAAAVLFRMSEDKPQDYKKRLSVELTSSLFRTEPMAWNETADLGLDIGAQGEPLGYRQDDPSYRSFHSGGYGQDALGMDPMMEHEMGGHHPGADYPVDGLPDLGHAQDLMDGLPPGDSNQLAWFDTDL
Assay [3] shares this target. The assay is described as follows: fluorescence polarization competition against 5FAM TCF4 10-53 probe.
Target sequence in this assay (P35222 whole entry, one chain of several): as the sequence (P35222 whole entry, one chain of several) above
For assay [4] the target is unchanged. Description: fluorescence polarization competition; full-length beta-catenin, competitor 5FAM-TCF4(10-53) probe.
Target sequence in this assay (P35222 whole entry, one chain of several): as above
Assay [5] has the same target. Description: fluorescence polarization competition; full-length beta-catenin, competitor 5FAM-TCF4 10-53.
Target sequence in this assay (P35222 whole entry, one chain of several): as above
The target in assay [6] is Bcat-Halo (UniProt P35222). Description: NanoBRET absolute IC50 in HEK293 cells; Bcat-Halo, competitor TCF4-Luc. (In general: Bioluminescence resonance energy transfer reports proximity on the nanometre scale.)
Assay [7] deals with beta-catenin (Homo sapiens (Human)) (UniProt P35222). The assay is described as follows: fluorescence polarization competition; full-length beta-catenin with 5FAM-TCF4(10-53) probe as competitor.
The target in assay [8] is Bcat-Halo (UniProt P35222). Description: NanoBRET Abs IC50, Bcat-Halo/TCF4-Luc in HEK293 cells.
Assay [9] has as its target full-length beta-Catenin (Uniprot ID P35222) (Homo sapiens (Human)) (UniProt P35222). Description: fluorescence polarization competition; displaces 5FAM-TCF4(10-53) from full-length beta-catenin.
Target sequence in this assay (P35222 2-781 limits assumed): as the sequence (P35222 2-781 limits assumed) above
For assay [10] the target is unchanged. Description: fluorescence polarization competition; full-length beta-catenin, competitor 5FAM-TCF4 10-53 probe.
Target sequence in this assay (P35222 2-781 limits assumed): as above

Starred links: 1 amine or outer side, 2 acyl side, 3 side chain; linkers in the order of their positions; H or OH if unused. Positions of bridges follow the written chain, without caps; N, C: chain ends. Non-standard residues stand in square brackets, D forms with d. Primed or numbered codes have the meaning given here. *: point of attachment. PyrS2″ = (S)-3-amino-1-((pent-4-en-1-yloxy)carbonyl)pyrrolidine-3-carboxylic acid (stapling residue), C=CCCCOC(=O)N1CC[C@@](N[*:1])(C(=O)[*:2])C1; B5(16) = 2-amino-2-(pent-4-en-1-yl)hept-6-enoic acid = 2,2-bis(4-pentenyl)glycine (stitching residue), C=CCCCC(CCCC=C)(N[*:1])C(=O)[*:2]; B5(4) = 2,2-bis(4-pentenyl)glycine = 2-amino-2-(pent-4-en-1-yl)hept-6-enoic acid (stitching residue), C=CCCCC(CCCC=C)(N[*:1])C(=O)[*:2]; B5(5) = 2,2-bis(4-pentenyl)glycine, 2-amino-2-(pent-4-en-1-yl)hept-6-enoic acid (stitching residue), C=CCCCC(CCCC=C)(N[*:1])C(=O)[*:2]; PyrS2 = (S)-3-amino-1-((pent-4-en-1-yloxy)carbonyl)pyrrolidine-3-carboxylic acid, C=CCCCOC(=O)N1CC[C@@](N[*:1])(C(=O)[*:2])C1; B5(12) = 2-amino-2-(pent-4-en-1-yl)hept-6-enoic acid (two olefin side chains), C=CCCCC(CCCC=C)(N[*:1])C(=O)[*:2]; B5(3) = 2,2-bis(4-pentenyl)glycine (stitching residue), C=CCCCC(CCCC=C)(N[*:1])C(=O)[*:2]; 4pentenyl = N-terminal pent-4-enoic acid (acyl cap), C=CCCC(=O)*; 5hexenyl = N-terminal hex-5-enoic acid (acyl cap), C=CCCCC(=O)*; 5hexenyl″ = N-terminal hex-5-enoic acid cap, C=CCCCC(=O)*; Phe(3-COOH) = N[C@@H](Cc1cccc(C(=O)O)c1)C(=O)O; Phe(2-Cl) = N[C@@H](Cc1ccccc1Cl)C(=O)O; Phe(2-F) = N[C@@H](Cc1ccccc1F)C(=O)O; Bta = N[C@@H](Cc1csc2ccccc12)C(=O)O; αAllylPro = C=CC[C@@]1(C(=O)O)CCCN1; tBuAla = CC(C)(C)C[C@H](N)C(=O)O; 3Thi = N[C@@H](Cc1ccsc1)C(=O)O; Cha = N[C@@H](CC1CCCCC1)C(=O)O; αMeP = C[C@@]1(C(=O)O)CCCN1

Chain of Bcat-Halo (P35222 whole entry): as the sequence (P35222 whole entry, one chain of several) above
Chain of beta-catenin (Homo sapiens (Human)) (P35222 whole entry): as the sequence (P35222 whole entry, one chain of several) above

In assay [1], Ac-[αAllylPro]D[Cha][B5(5)]DDAAFT[PyrS2″][Phe(2-Cl)][Bta]Q-NH2 (staple 1-4, 4-11) [I-1042] returned an IC50 of 5 nM. The EC50 in assay [2] came out at 5 nM.

B1: I-2598 (peptide)
peptide: {5hexenyl″}-[αMeP]D[B5(3)]ADDAAF[PyrS2]L[3Thi][Bta]Q-NH2
modifications: staple 3-10; staple (positions not given here); not fully specified (bridges); printed as 5hexenyl-MePro-Asp-B5-Ala-Asp-Asp-Ala-Ala-Phe-PyrS2-Leu-3Thi-BztA-Gln-NH2
In assay [3], B1 registered an IC50 of 1350 nM.

B2: I-1064 (peptide)
peptide: Ac-[αAllylPro]D[tBuAla][B5(3)]DDAAFL[PyrS2][Phe(2-Cl)][Bta]S-NH2
modifications: staple 1-4, 4-11; not fully specified; printed as Ac-PL3-Asp-Npg-B5-Asp-Asp-Ala-Ala-Phe-Leu-PyrS2-2C1F-BztA-Ser-NH2
Turning to B2, in [1], the IC50 turned out to be 414 nM. This molecule returned a 50% effective concentration (EC50) in assay [4] of 414 nM.

B3: I-1066 (peptide)
peptide: Ac-[αAllylPro]D[tBuAla][B5(3)]DEAAFL[PyrS2″][Phe(2-Cl)][Bta]S-NH2
modifications: staple 1-4, 4-11; not fully specified; printed as Ac-PL3-Asp-Npg-B5-Asp-Glu-Ala-Ala-Phe-Leu-PyrS2-2C1F-BztA-Ser-NH2
Regarding B3, the IC50 in assay [1] was found to be 789 nM. The EC50 in [4] came to 789 nM.
Turning to Ac-[αAllylPro]D[tBuAla][B5(5)]DEAAFS[PyrS2″][Phe(2-Cl)][Bta][dT]-NH2 (staple 1-4, 4-11) [I-1036], the IC50 is 29 nM in assay [5] and 16600 nM in assay [6]. Also, the EC50 in [2] is 29 nM.
The molecule Ac-[αAllylPro]D[tBuAla][B5(5)]DEAAFL[PyrS2″][3Thi][Bta]Q-NH2 (staple 1-4, 4-11) [I-1437] had an EC50 in assay [7] of 7 nM. The figures for the IC50 in [4] and in assay [6] were 7 nM and 7100 nM, respectively.
In the case of Ac-[αAllylPro]D[tBuAla][B5(5)]DDAAFT[PyrS2″][Phe(2-F)][Bta]Q-NH2 (staple 1-4, 4-11) [I-1021], the figures for the IC50 in assay [5], in assay [8] and in assay [6] were 5 nM, 11500 nM and 11500 nM, respectively. The molecule also had an EC50 in assay [9] of 5 nM.
Consider Ac-[αAllylPro]D[tBuAla][B5(3)]DEAAFL[PyrS2″][Phe(2-Cl)][Bta]S-NH2 (staple 1-4, 4-11; not fully specified; printed as Ac-PL3-Asp-Npg-B5-Asp-Glu-Ala-Ala-Phe-Leu-PyrS2-2C1F-BztA-Ser-NH2) [I-1067], for which the IC50 in assay [1] came out at 517 nM. The same molecule registered an EC50 in assay [4] of 517 nM.

B4: I-2602 (peptide)
peptide: 5hexenyl-XD[B5(3)]AD[Phe(3-COOH)]AAF[PyrS2]L[3Thi][Bta]Q-NH2
modifications: staple 3-10; staple (positions not given here); not fully specified (residue 1, bridges); printed as 5hexenyl-MePro-Asp-B5-Ala-Asp-3COOHF-Ala-Ala-Phe-PyrS2-Leu-3Thi-BztA-Gln-NH2
B4 came in with an IC50 in [3] of 8220 nM.
On to Ac-[αAllylPro]DN[B5(12)]DDAAFL[PyrS2″][3Thi][Bta]L-NH2 (staple 1-4, 4-11) [I-1413], for which the IC50 in assay [10] amounted to 74 nM. Besides, in assay [7], the concentration giving a half-maximal response (EC50) was found to be 74 nM.

B5: I-1068 (peptide)
peptide: Ac-[αAllylPro]D[tBuAla][B5(3)]DDAAFL[PyrS2″][Phe(2-Cl)][Bta]T-NH2
modifications: staple 1-4, 4-11; not fully specified; printed as Ac-PL3-Asp-Npg-B5-Asp-Asp-Ala-Ala-Phe-Leu-PyrS2-2C1F-BztA-Thr-NH2
In assay [1], B5 yielded an IC50 of 950 nM. This molecule also gave an EC50 in assay [4] of 950 nM.
The molecule Ac-[αAllylPro]D[tBuAla][B5(4)]DSAAFL[PyrS2″][3Thi][Bta]Q-NH2 (staple 1-4, 4-11) [I-1443] came in with an EC50 in assay [7] of 24 nM. The concentration for half-maximal inhibition (IC50) in assay [4] is 24 nM; in assay [6], 9500 nM.
For the molecule Ac-[αAllylPro]D[tBuAla][B5(5)]DDAAFS[PyrS2″][Phe(2-Cl)][Bta][dT]-NH2 (staple 1-4, 4-11) [I-1032], the results for the IC50 in assay [5] and in [6] were 15 nM and 10400 nM, respectively. The EC50 in assay [2] amounted to 15 nM.
For the molecule Ac-[αAllylPro]D[tBuAla][B5(3)]DDAAFL[PyrS2″][Phe(2-Cl)][Bta]T-NH2 (staple 1-4, 4-11; also: staple stereoisomer: later eluting HPLC peak) [I-1069], in assay [1], the IC50 stood at 920 nM. Besides, the EC50 in assay [4] stood at 920 nM.

B6: I-1070 (peptide)
peptide: Ac-[αAllylPro]D[tBuAla][B5(3)]DEAAFL[PyrS2″][Phe(2-Cl)][Bta]T-NH2
modifications: staple 1-4, 4-11; not fully specified; printed as Ac-PL3-Asp-Npg-B5-Asp-Glu-Ala-Ala-Phe-Leu-PyrS2-2C1F-BztA-Thr-NH2
B6 displayed an IC50 in assay [1] of 1020 nM. The molecule further displayed an EC50 in assay [4] of 1020 nM.
For Ac-[αAllylPro]D[tBuAla][B5(5)]DNAAFT[PyrS2″][Phe(2-F)][Bta]Q-NH2 (staple 1-4, 4-11) [I-1022], the IC50 in assay [5] came to 33 nM; in assay [6], 13700 nM. The molecule further registered an EC50 in [9] of 33 nM.
For Ac-[αAllylPro]D[tBuAla][B5(5)]DDAAFT[PyrS2″][Phe(2-Cl)][Bta][dT]-NH2 (staple 1-4, 4-11) [I-1033], the IC50 worked out at 10 nM in assay [5] and 8600 nM in [6]. In addition, in [2], the EC50 was 10 nM.
For Ac-[αAllylPro]D[tBuAla][B5(4)]DQAAFL[PyrS2″][3Thi][Bta]Q-NH2 (staple 1-4, 4-11) [I-1440], the half-maximal effective concentration (EC50) in [7] is 26 nM. The figures for the IC50 in [4] and in [6] were 26 nM and 20700 nM, respectively.
Consider Ac-[αAllylPro]D[tBuAla][B5(5)]DEAAFT[PyrS2″][Phe(2-Cl)][Bta][dT]-NH2 (staple 1-4, 4-11) [I-1037], for which the values for the concentration for half-maximal inhibition (IC50) in assay [5] and in assay [6] were 30 nM and 4400 nM, respectively. In addition, in assay [2], the EC50 was 30 nM.

B7: I-2600 (peptide)
peptide: 5hexenyl-XD[B5(3)]ADDAAF[PyrS2]L[3Thi][Bta]Q-NH2
modifications: staple 3-10; staple (positions not given here); not fully specified (residue 1, bridges); printed as 5hexenyl-MePro-Asp-B5-Ala-Asp-Asp-Ala-Ala-Phe-PyrS2-Leu-3Thi-BztA-Gln-NH2; also: -CH=CH- in each staple reduced to -CH2-CH2-
In turn, B7 showed a concentration for half-maximal inhibition (IC50) in assay [3] of 923 nM.
Consider Ac-[αAllylPro]D[tBuAla][B5(3)]DEAAFL[PyrS2][Phe(2-Cl)][Bta]Q-NH2 (staple 1-4, 4-11) [I-1063], for which the IC50 in [1] came to 471 nM. In assay [4], this molecule displayed an EC50 of 471 nM.

B8: I-2601 (peptide)
peptide: 4pentenyl-XD[B5(3)]ADDAAF[PyrS2]L[3Thi][Bta]Q-NH2
modifications: staple 3-10; staple (positions not given here); not fully specified (residue 1, bridges); printed as 4pentenyl-MePro-Asp-B5-Ala-Asp-Asp-Ala-Ala-Phe-PyrS2-Leu-3Thi-BztA-Gln-NH2; also: -CH=CH- in each staple reduced to -CH2-CH2-
The molecule B8 had an IC50 in assay [3] of 592 nM.

B9: I-1065 (peptide)
peptide: Ac-[αAllylPro]D[tBuAla][B5(3)]DDAAFL[PyrS2″][Phe(2-Cl)][Bta]S-NH2
modifications: staple 1-4, 4-11; not fully specified; printed as Ac-PL3-Asp-Npg-B5-Asp-Asp-Ala-Ala-Phe-Leu-PyrS2-2C1F-BztA-Ser-NH2
Turning to B9, the half-maximal inhibitory concentration (IC50) in assay [1] turned out to be 520 nM. For the same molecule, in [4], the EC50 came to 520 nM.

For orientation: IC50 means the point on the concentration scale where inhibition reaches its midpoint. Lower therefore signals higher potency. As a reminder, the EC50 is the concentration at which the effect is half-maximal.
